# Laboratory results from paper PMC13185157 (ACS Synthetic Biology, 2026).
# Target: T1, GFP (Aequorea victoria GFP, engineered …)
# T1 construct: green fluorescent protein expressed from pYTK001; also called green fluorescent protein; source: E. coli DH5α, constitutive expression from pYTK001, in lysate
# Experiment: flow cytometry on cells; about 1 x 10^6 yeast cells displaying the α-GFP Nb in 20 mM HEPES pH 7.5, 150 mM NaCl, 0.1% BSA, 5 mM maltose; GFP from a bacterial cell lysate (20–30 μL); 15 min at 4 °C; GFP fluorescence, percent of positive cells
# Details: partners not purified
# T1 sequence (P42212 other isoform, or with tags, fused parts or gaps): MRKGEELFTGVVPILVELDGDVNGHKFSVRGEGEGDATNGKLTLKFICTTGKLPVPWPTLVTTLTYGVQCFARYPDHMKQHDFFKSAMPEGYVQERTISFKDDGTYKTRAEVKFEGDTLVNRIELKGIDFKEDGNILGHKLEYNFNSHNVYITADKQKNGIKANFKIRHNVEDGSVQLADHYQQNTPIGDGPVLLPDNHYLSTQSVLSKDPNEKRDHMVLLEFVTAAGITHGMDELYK
row,Binder,percent of cells labelled with GFP
1,"α-GFP Nb displayed as N-terminal fusion to HA-tagged Aga1ΔN181 (VHH, anti-GFP nanobody; Plasmid details in File S1; also called anti-GFP Nanobody; not shown: HA (of the anchor part), internal (between nanobody and anchor), kept; Aga1ΔN181 anchor (Aga1p YNR044W amino acids 182–544), C-terminal, kept) VHH: QVQLVESGGALVQPGGSLRLSCAASGFPVNRYSMRWYRQAPGKEREWVAGMSSAGDRSSYEDSVKGRFTISRDDARNTVYLQMNSLKPEDTAVYYCNVNVGFEYWGQGTQVTVSS",> 80%
2,"α-GFP Nb displayed as C-terminal fusion to untagged Aga2 (VHH, anti-GFP nanobody, as in m2; also called anti-GFP Nanobody; not shown: Aga2p anchor (YGL032C), N-terminal, kept) VHH: QVQLVESGGALVQPGGSLRLSCAASGFPVNRYSMRWYRQAPGKEREWVAGMSSAGDRSSYEDSVKGRFTISRDDARNTVYLQMNSLKPEDTAVYYCNVNVGFEYWGQGTQVTVSS",> 60%
3,"α-GFP Nb displayed as C-terminal fusion to HA-tagged Aga2 (VHH, anti-GFP nanobody, as in m2; Held on the cell by coexpressed Aga1; also called anti-GFP Nanobody; not shown: HA, internal (after amino acid 18 of Aga2p, after the signal peptide), kept; Aga2p anchor (YGL032C), N-terminal, kept) VHH: QVQLVESGGALVQPGGSLRLSCAASGFPVNRYSMRWYRQAPGKEREWVAGMSSAGDRSSYEDSVKGRFTISRDDARNTVYLQMNSLKPEDTAVYYCNVNVGFEYWGQGTQVTVSS",> 60%
4,"α-GFP Nb displayed as C-terminal fusion to MYC-tagged Aga2 (VHH, anti-GFP nanobody, as in m2; also called anti-GFP Nanobody; not shown: Aga2p anchor (YGL032C), N-terminal, kept) VHH: QVQLVESGGALVQPGGSLRLSCAASGFPVNRYSMRWYRQAPGKEREWVAGMSSAGDRSSYEDSVKGRFTISRDDARNTVYLQMNSLKPEDTAVYYCNVNVGFEYWGQGTQVTVSS",> 60%
5,"α-GFP Nb displayed as C-terminal fusion to 2xFLAG-tagged Aga2 (VHH, anti-GFP nanobody, as in m2; Held on the cell by coexpressed Aga1; also called anti-GFP Nanobody; not shown: 2xFLAG, internal (after amino acid 18 of Aga2p, after the signal peptide), kept; Aga2p anchor (YGL032C), N-terminal, kept) VHH: QVQLVESGGALVQPGGSLRLSCAASGFPVNRYSMRWYRQAPGKEREWVAGMSSAGDRSSYEDSVKGRFTISRDDARNTVYLQMNSLKPEDTAVYYCNVNVGFEYWGQGTQVTVSS",> 60%
6,"α-GFP Nb displayed as N-terminal fusion to MYC-tagged Aga1ΔN181 (VHH, anti-GFP nanobody, as in m2; also called anti-GFP Nanobody; not shown: MYC, internal (between nanobody and anchor), kept; Aga1ΔN181 anchor (Aga1p YNR044W amino acids 182–544), C-terminal, kept) VHH: QVQLVESGGALVQPGGSLRLSCAASGFPVNRYSMRWYRQAPGKEREWVAGMSSAGDRSSYEDSVKGRFTISRDDARNTVYLQMNSLKPEDTAVYYCNVNVGFEYWGQGTQVTVSS",> 80%
7,"α-GFP Nb displayed as N-terminal fusion to 2xFLAG-tagged Aga1ΔN181 (VHH, anti-GFP nanobody, as in m2; also called anti-GFP Nanobody; not shown: 2xFLAG, internal (between nanobody and anchor), kept; Aga1ΔN181 anchor (Aga1p YNR044W amino acids 182–544), C-terminal, kept) VHH: QVQLVESGGALVQPGGSLRLSCAASGFPVNRYSMRWYRQAPGKEREWVAGMSSAGDRSSYEDSVKGRFTISRDDARNTVYLQMNSLKPEDTAVYYCNVNVGFEYWGQGTQVTVSS",> 80%
